Experimental data taken from US10221225B2, “Peptides and combination of peptides and scaffolds thereof for use in immunotherapy against colorectal carcinoma (CRC) and other cancers” (immatics biotechnologies GmbH, priority 2015, dated 2019).

The substances below were run against HLA-A*02:01 (Homo sapiens, UniProt P04439, D140Y/D185E/D98H/E176V/E277Q/G131W/G231S/I119V/I121R/I166T/I218V/L300P/L318F/N151K/N90K/P208A/P217A/Q86G/Q94H/R138H/R169H/T345S) (assay: MHC binding assay (UV-ligand exchange, beta2m ELISA, peptide exchange yield)). Conditions: MHC class I binding score; binding to HLA-A*02:01 ranged by peptide exchange yield (UV-ligand exchange, β2m ELISA).
Source text: Candidate peptides for T cell based therapies according to the present invention were further tested for their MHC binding capacity (affinity). The individual peptide-MHC complexes were produced by UV-ligand exchange, where a UV-sensitive peptide is cleaved upon UV-irradiation, and exchanged with the peptide of interest as analyzed. Only peptide candidates that can effectively bind and stabilize the peptide-receptive MHC molecules prevent dissociation of the MHC complexes. To determine the yield of the exchange reaction, an ELISA was performed based on the detection of the light chain (β2m) of stabilized MHC complexes. The assay was performed as generally described in Rodenko et al. (Rodenko et al., 2006).
96 well MAXISorp plates (NUNC) were coated over night with 2 ug/ml streptavidin in PBS at room temperature, washed 4× and blocked for 1 h at 37° C. in 2% BSA containing blocking buffer. Refolded HLA-A*02:01/MLA-001 monomers served as standards, covering the range of 15-500 ng/ml. Peptide-MHC monomers of the UV-exchange reaction were diluted 100 fold in blocking buffer. Samples were incubated for 1 h at 37° C., washed four times, incubated with 2 ug/ml HRP conjugated anti-β2m for 1 h at 37° C., washed again and detected with TMB solution that is stopped with […]. Absorption was measured at 450 nm. Candidate peptides that show a high exchange yield (preferably higher than 50%, most preferred higher than 75%) are generally preferred for a generation and production of antibodies or fragments thereof, and/or T cell receptors or fragments thereof, as they show sufficient avidity to the MHC molecules and prevent dissociation of the MHC complexes.

| Peptide exchange | Substance |
| --- | --- |
| ″+++″ (≥50 = +++) | 4 (RLAELTVDEFL; listed as Homo sapiens) [compound 4] |
| ″+++″ (≥50 = +++) | 6 (FLAELPGSLSL; listed as Homo sapiens) [compound 6] |
| ″+++″ (≥50 = +++) | 8 (ALMLQGVDLL; listed as Homo sapiens) [compound 8] |
| ″++″ (≥20% = ++) | 14 (FLDKPEDVLL; listed as Homo sapiens) [compound 14] |
| ″+++″ (≥50 = +++) | 15 (LQLDKEFQL; listed as Homo sapiens) [compound 15] |
| ″+++″ (≥50 = +++) | 16 (VLVDQSWVL; listed as Homo sapiens) [compound 16] |
| ″+++″ (≥50 = +++) | 20 (YLKDGDVML; listed as Homo sapiens) [compound 20] |
| ″+++″ (≥50 = +++) | 23 (FLDANGHFV; listed as Homo sapiens) [compound 23] |
| ″+++″ (≥50 = +++) | 24 (VLDGVLMEL; listed as Homo sapiens) [compound 24] |
| ″++++″ (≥75% = ++++) | 25 (SLADRLIGV; listed as Homo sapiens) [compound 25] |
| ″++″ (≥20% = ++) | 26 (GLASKENFSNVSL; listed as Homo sapiens) [compound 26] |
| ″++″ (≥20% = ++) | 27 (LLADEDSSYL; listed as Homo sapiens) [compound 27] |
| ″++++″ (≥75% = ++++) | 28 (ALTEIQEFI; listed as Homo sapiens) [compound 28] |
| ″+++″ (≥50 = +++) | 29 (QMLDVAIRV; listed as Homo sapiens) [compound 29] |
| ″+″ (≥10% = +) | 30 (GLSSAYGGL; listed as Homo sapiens) [compound 30] |
| ″+++″ (≥50 = +++) | 33 (ALWEKNTHL; listed as Homo sapiens) [compound 33] |
| ″+++″ (≥50 = +++) | 34 (ILLEKSVSV; listed as Homo sapiens) [compound 34] |
| ″+++″ (≥50 = +++) | 35 (KLLDLTVRI; listed as Homo sapiens) [compound 35] |
| ″+++″ (≥50 = +++) | 36 (GLLESPSIFNFTA; listed as Homo sapiens) [compound 36] |
| ″++″ (≥20% = ++) | 40 (ALSNVIHKV; listed as Homo sapiens) [compound 40] |

| Peptide exchange | Substance |
| --- | --- |
| ″++″ (≥20% = ++) | 41 (ILDDSFKLL; listed as Homo sapiens) [compound 41] |
| ″++″ (≥20% = ++) | 43 (TLDAAQPRV; listed as Homo sapiens) [compound 43] |
| ″+++″ (≥50 = +++) | 44 (SLESKLTSV; listed as Homo sapiens) [compound 44] |
| ″+++″ (≥50 = +++) | 45 (ALAELLHGA; listed as Homo sapiens) [compound 45] |
| ″+++″ (≥50 = +++) | 46 (GLDDRYSLV; listed as Homo sapiens) [compound 46] |
| ″++″ (≥20% = ++) | 48 (FLDASDPAL; listed as Homo sapiens) [compound 48] |
| ″+++″ (≥50 = +++) | 50 (TLMAEMHVV; listed as Homo sapiens) [compound 50] |
| ″++″ (≥20% = ++) | 51 (QVWEIQHTV; listed as Homo sapiens) [compound 51] |
| ″++″ (≥20% = ++) | 52 (ALDSSNSMQTI; listed as Homo sapiens) [compound 52] |
| ″+++″ (≥50 = +++) | 53 (FLLGSEIKL; listed as Homo sapiens) [compound 53] |
| ″+++″ (≥50 = +++) | 54 (ALLNGEYLLAA; listed as Homo sapiens) [compound 54] |
| ″++″ (≥20% = ++) | 56 (VLFTDEGVPKFL; listed as Homo sapiens) [compound 56] |
| ″+++″ (≥50 = +++) | 57 (NLLEKENYL; listed as Homo sapiens) [compound 57] |
| ″++″ (≥20% = ++) | 58 (AMADKMDMSL; listed as Homo sapiens) [compound 58] |
| ″++″ (≥20% = ++) | 60 (VLDEDEPRFL; listed as Homo sapiens) [compound 60] |
| ″+++″ (≥50 = +++) | 61 (KLLKLFQGV; listed as Homo sapiens) [compound 61] |
| ″++″ (≥20% = ++) | 62 (YLAPENGYL; listed as Homo sapiens) [compound 62] |
| ″++″ (≥20% = ++) | 63 (KLFSILSTV; listed as Homo sapiens) [compound 63] |
| ″++″ (≥20% = ++) | 66 (GLDDGPDFL; listed as Homo sapiens) [compound 66] |
| ″+++″ (≥50 = +++) | 67 (SLNDLEKDVMLL; listed as Homo sapiens) [compound 67] |

| Peptide exchange | Substance |
| --- | --- |
| ″+++″ (≥50 = +++) | 68 (SILQFVHMV; listed as Homo sapiens) [compound 68] |
| ″++″ (≥20% = ++) | 69 (GMLNEAEGKAIKL; listed as Homo sapiens) [compound 69] |
| ″+++″ (≥50 = +++) | 70 (MISELEVRL; listed as Homo sapiens) [compound 70] |
| ″+++″ (≥50 = +++) | 71 (RLWTEIPTAI; listed as Homo sapiens) [compound 71] |
| ″+++″ (≥50 = +++) | 72 (YLLDYPNNLL; listed as Homo sapiens) [compound 72] |
| ″+++″ (≥50 = +++) | 73 (YLFDIAVSM; listed as Homo sapiens) [compound 73] |
| ″+++″ (≥50 = +++) | 74 (YLMGFLHAV; listed as Homo sapiens) [compound 74] |
| ″++″ (≥20% = ++) | 75 (EMIENIQSV; listed as Homo sapiens) [compound 75] |
| ″+++″ (≥50 = +++) | 76 (YLIGEKQHYL; listed as Homo sapiens) [compound 76] |
| ″++″ (≥20% = ++) | 77 (SLLKRDFGA; listed as Homo sapiens) [compound 77] |
| ″++″ (≥20% = ++) | 78 (ALDPELLLL; listed as Homo sapiens) [compound 78] |
| ″++″ (≥20% = ++) | 79 (SLAADQLLKL; listed as Homo sapiens) [compound 79] |
| ″++″ (≥20% = ++) | 80 (QVDEVVDIMRV; listed as Homo sapiens) [compound 80] |
| ″+++″ (≥50 = +++) | 81 (ALLSQQTHL; listed as Homo sapiens) [compound 81] |
| ″++″ (≥20% = ++) | 82 (QLYEEPDTKL; listed as Homo sapiens) [compound 82] |
| ″+++″ (≥50 = +++) | 83 (LTIEDGIFEV; listed as Homo sapiens) [compound 83] |
| ″+++″ (≥50 = +++) | 84 (SMVEDITGLRL; listed as Homo sapiens) [compound 84] |
| ″++″ (≥20% = ++) | 85 (ILHDINSDGVL; listed as Homo sapiens) [compound 85] |
| ″++″ (≥20% = ++) | 86 (KVFPGKISV; listed as Homo sapiens) [compound 86] |
| ″+++″ (≥50 = +++) | 87 (LLFDAPDLRL; listed as Homo sapiens) [compound 87] |
